Data published in US20100203046A1.

How the values were obtained:
[1] = target: human FcγRIII (CD16), CD16a (F158), on CD16-transfected Jurkat cells (human) (UniProt P08637); experiment: summary of Table 5 assays
[2] = target: human FcγRIII (CD16), CD16a (F158), on CD16-transfected Jurkat cells (human) (UniProt P08637); experiment: CD16 bridging assay, purified

Chain of human FcγRIII (CD16), CD16a (F158), on CD16-transfected Jurkat cells (human) (P08637 17-254): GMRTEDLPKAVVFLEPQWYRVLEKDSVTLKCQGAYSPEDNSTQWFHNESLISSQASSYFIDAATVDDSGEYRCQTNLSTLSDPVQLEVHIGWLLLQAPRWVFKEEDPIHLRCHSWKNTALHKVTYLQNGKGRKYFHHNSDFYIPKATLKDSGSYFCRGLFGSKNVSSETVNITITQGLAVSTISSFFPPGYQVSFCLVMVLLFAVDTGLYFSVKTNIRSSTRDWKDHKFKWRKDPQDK

fold decrease in binding vs WT [1]: > 10 fold
fold decrease in binding vs WT [2]: 20 fold
Substance: chCB6-huIgG1 Y296S (antibody)
